Experimental data taken from article PMC10202398, “Nitrite reductase activity in F420-dependent sulphite reductase (Fsr) from Methanocaldococcus jannaschii” (Access Microbiology, 2023).

What was measured:
[1] = biological target: T1, MjFsrI (F420-dependent sulphite reductase, Fsr) (Methanocaldococcus jannaschii, UniProt Q58280); assay: non-degradative extraction from purified protein, reversed-phase HPLC; type: binding; conditions: native co-purified flavin, 25 mM potassium phosphate pH 7
T1 construct: native, purified from sulphite-grown Mj cells; untagged
T1 sequence (Q58280 1-620): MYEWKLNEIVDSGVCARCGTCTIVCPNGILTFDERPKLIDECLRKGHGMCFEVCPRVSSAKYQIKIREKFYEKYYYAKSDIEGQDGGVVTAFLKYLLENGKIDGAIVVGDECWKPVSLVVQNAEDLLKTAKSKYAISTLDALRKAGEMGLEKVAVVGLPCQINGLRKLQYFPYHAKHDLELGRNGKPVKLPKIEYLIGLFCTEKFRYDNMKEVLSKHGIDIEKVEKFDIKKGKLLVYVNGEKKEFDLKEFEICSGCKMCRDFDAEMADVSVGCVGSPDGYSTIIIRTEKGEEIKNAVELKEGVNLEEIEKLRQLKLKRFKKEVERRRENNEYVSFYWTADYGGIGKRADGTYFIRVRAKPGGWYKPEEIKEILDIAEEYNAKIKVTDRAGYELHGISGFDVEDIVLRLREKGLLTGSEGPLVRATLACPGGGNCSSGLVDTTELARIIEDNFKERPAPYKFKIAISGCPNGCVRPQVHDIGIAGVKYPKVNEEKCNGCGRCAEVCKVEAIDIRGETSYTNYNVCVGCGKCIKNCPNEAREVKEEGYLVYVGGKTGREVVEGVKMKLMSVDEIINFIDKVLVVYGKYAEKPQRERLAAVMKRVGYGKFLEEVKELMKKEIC

purified protein [2] = substrate: NO; assay: purified protein; type: biochemical, Methanocaldococcus jannaschii; conditions: 40 µM F420H2, 25-600 µM hydroxylamine, 100 mM potassium phosphate pH 7
purified protein [3] = substrate: O=NO; assay: purified protein; type: biochemical, Methanocaldococcus jannaschii; conditions: 40 µM F420H2, 5-150 µM nitrite, 100 mM potassium phosphate pH 7

For `Cc1cc2nc3c(=O)[nH]c(=O)nc-3n(C[C@H](O)[C@H](O)[C@H](O)COP(=O)(O)OP(=O)(O)OC[C@H]3O[C@@H](n4cnc5c(N)ncnc54)[C@H](O)[C@@H]3O)c2cc1C` [FAD], the “non-degradative extraction from purified protein, reversed-phase HPLC” value [1] was “Reversed-phase HPLC identified the flavin extracted from MjFsrI as FAD”.

B1: MjFsrI (F420-dependent sulphite reductase, Fsr) (Methanocaldococcus jannaschii DSM 2661) (protein)
chain: T1 sequence (Q58280 1-620)
notes: native, purified from sulphite-grown Mj cells; untagged
In the case of B1, the Km (purified protein [2]) is reported as 112.4 ± 14.4 µM and the Km (purified protein [3]) is reported as 8.9 ± 0.9 µM.
